From patent US20240067747A1 (SHANGHAI HUAOTA BIOPHARMACEUTICAL, published 2024) come the findings set out here.

Substitutions are numbered along the chain they refer to. Where two headings read alike, the source gives them in different places.

In test [1] the target is T1, human CD73 on the cell surface of CHOK1-huCD73-3F4 cells (Huabo Biopharm) (human, UniProt P21589 27-549).
T1 construct: whole, on cells; also called cells expressing human CD73; CD73 on cell membrane
T1 sequence (looked up): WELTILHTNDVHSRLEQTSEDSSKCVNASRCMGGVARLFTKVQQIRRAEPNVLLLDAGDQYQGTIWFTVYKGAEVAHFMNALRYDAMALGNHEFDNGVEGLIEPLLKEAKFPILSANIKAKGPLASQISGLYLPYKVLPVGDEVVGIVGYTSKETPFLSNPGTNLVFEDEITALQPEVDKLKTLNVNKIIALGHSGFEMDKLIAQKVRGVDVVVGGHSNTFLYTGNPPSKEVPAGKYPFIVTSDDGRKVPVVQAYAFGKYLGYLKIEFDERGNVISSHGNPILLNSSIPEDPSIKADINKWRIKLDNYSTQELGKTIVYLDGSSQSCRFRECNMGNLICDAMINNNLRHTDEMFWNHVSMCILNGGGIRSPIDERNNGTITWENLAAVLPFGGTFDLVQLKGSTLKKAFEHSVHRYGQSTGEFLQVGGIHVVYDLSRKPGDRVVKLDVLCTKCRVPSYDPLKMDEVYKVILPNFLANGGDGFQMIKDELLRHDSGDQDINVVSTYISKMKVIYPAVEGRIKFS
Description: flow cytometry on CHOK1-huCD73-3F4 cells, PE-goat anti-human-Fc. The method, then: All antigen-binding proteins were diluted to 30 μg/ml with 1% BSA in PBS solution (1% BSA/PBS) and then 3-fold diluted for 11 gradients. The diluted antigen-binding proteins were added to a 96-well U-shaped plate at 20 μL per well; and a negative control (with 1% BSA/PBS added only) was set up at the same time. The suspension of cells (CHOK1-huCD73-3F4, Huabo Biopharm) expressing human CD73 during the logarithmic growth phase were centrifuged (1000 rpm×5 min) to discard the culture medium; and the cells were resuspended with 1% BSA/PBS until the density of viable cells was 1×10⁶/mL, and were added, at 20 μL (2×10⁴ cells) per well, to the 96-well U-shaped plate with the […] antigen-binding protein to react for 30 min at room temperature. After reaction, the 96-well U-shaped plate was resuspended with 1% BSA/PBS, centrifuged (300 g×3 min) to discard the supernatant, and washed once in such a way. PE-goat anti-human-Fc (Jackson ImmunoResearch, #109-115098) diluted at 1:200 was added to react for 15 min in the dark at room temperature. After reaction, the 96-well U-shaped plate was resuspended with 1% BSA/PBS, centrifuged (300 g×3 min) to discard the supernatant, washed three times in such a way, and finally resuspended with 100 μL of 1% BSA/PBS for each wall; and the fluorescence intensity of a PE channel was detected with a flow cytometer (BD, #Cantoll).
(Flow cytometry measures light scatter and fluorescence of single cells or particles in a stream.)

Test [2] deals with T1, human CD73 on the cell surface of …. Description: cell-based or functional assay.
The target of test [3] is T2, Human CD73 (as used in the hybridoma screening of Table 1) (human, UniProt P21589 27-549, limits assumed).
T2 sequence (looked up): T1 sequence (looked up)
Description: Biacore affinity screen of hybridoma clones.

The target in test [4] is T1, human CD73 on the cell surface of …. As to the kind of experiment: cell-based or functional assay. This is another data set of the same source.

B1: 900584 (screened antigen-binding protein targeting CD73) (antibody, V domains shown)
VH: QVQVQQPGTELVKPGASVKLSCKASGYTFTGYWMHWVKQRPGQGLEWIGMIHPNSGSTYYNEKFKSKATLTVDRSSSTAYMQLSSLSSEDSAVYYCARYYGTTYEWYFDVWGTGTTVTVSS
VL: DIQMTQTTSSLSASLGDRVTISCRASQDISNYLNWYQQKPDGTVKPLIYYTSSLHSGVPSRFSGSGSGTDYSLTISDLEHEDIATYFCQQGYTLPFTFGGGTKLEIK
notes: It was detected with PE-goat anti-human-Fc
In turn, B1 gave an EC50 in test [1] of 2.9 µg/mL. Besides, the “EC50 of inhibition of the enzyme activity of CD73 on cell membrane (AMP/ATP, CellTiter-Glo)” value in test [2] worked out at 11.1 µg/mL.

B2: 124A9 murine monoclonal antigen-binding protein (hybridoma clone 124A9) (antibody, V domains shown)
VH: B1 VH with V4L, T9A, G31S, M34I, E46D, R74K, S87T, T102S, T103D
VL: DIVMTQSQKFMSTSVGDRVSITCKASQNVRTAVVWYQQNPGQSPKALIYLASNRHTGVPDRFTGSGSGTDFTLTISNVHSEDLADYFCLQHWNYPYTFGGGTKLEIK
In turn, B2 registered a Kd in test [3] of 2.16 nM. In other words, the single-digit nanomolar range.

B3: 900759 (Oleclumab antibody sourced from MedImmune, MEDI 9447) (antibody, human IgG1, lambda, L234A L235A, V domains shown)
VH: EVQLLESGGGLVQPGGSLRLSCAASGFTFSSYAYSWVRQAPGKGLEWVSAISGSGGRTYYADSVKGRFTISRDNSKNTLYLQMNSLRAEDTAVYYCARLGYGRVDEWGRGTLVTVSS
VL: QSVLTQPPSASGTPGQRVTISCSGSLSNIGRNPVNWYQQLPGTAPKLLIYLDNLRLSGVPDRFSGSKSGTSASLAISGLQSEDEADYYCATWDDSHPGWTFGGGTKLTVLG
Turning to B3, the “EC50 of inhibition of the enzyme activity of CD73 on cell membrane (AMP/ATP, CellTiter-Glo)” value in test [4] was found to be 0.0417 µg/mL.

For orientation: EC50 means the concentration needed to bring the measured effect to its halfway point. Lower therefore signals an effect from little substance. One may read the Kd as the free concentration of one partner at which half of the binding sites on the other are occupied at equilibrium, for simple one-to-one binding. A lower Kd goes with higher affinity.
